Source: PMC9365671, “Synergistic autoinhibition and activation mechanisms control kinesin-1 motor activity” (Cell reports, 2022)

What was measured:
Test in all cases: quantitative Coomassie blue staining of the co-purified complex; KIF5-mScarlet-StrepII and His-FLAG-KLC1 co-expressed in Sf9, purified on Streptactin XT and by SEC
Conditions in all cases: partners not purified
[1] = target: T1, full-length human KIF5C-mScarlet-StrepII (human, UniProt O60282 1-957)
T1 construct: kinesin heavy chain KIF5C, human, cDNA BC110287, full length; 2x Prescission protease sites lie between KIF5C and mScarlet; also called KHC; source: Sf9 (baculovirus), purified (Streptactin XT, SEC); also co-expressed with KLC1 and co-purified; not shown: mScarlet, C-terminal, kept
T1 sequence (looked up): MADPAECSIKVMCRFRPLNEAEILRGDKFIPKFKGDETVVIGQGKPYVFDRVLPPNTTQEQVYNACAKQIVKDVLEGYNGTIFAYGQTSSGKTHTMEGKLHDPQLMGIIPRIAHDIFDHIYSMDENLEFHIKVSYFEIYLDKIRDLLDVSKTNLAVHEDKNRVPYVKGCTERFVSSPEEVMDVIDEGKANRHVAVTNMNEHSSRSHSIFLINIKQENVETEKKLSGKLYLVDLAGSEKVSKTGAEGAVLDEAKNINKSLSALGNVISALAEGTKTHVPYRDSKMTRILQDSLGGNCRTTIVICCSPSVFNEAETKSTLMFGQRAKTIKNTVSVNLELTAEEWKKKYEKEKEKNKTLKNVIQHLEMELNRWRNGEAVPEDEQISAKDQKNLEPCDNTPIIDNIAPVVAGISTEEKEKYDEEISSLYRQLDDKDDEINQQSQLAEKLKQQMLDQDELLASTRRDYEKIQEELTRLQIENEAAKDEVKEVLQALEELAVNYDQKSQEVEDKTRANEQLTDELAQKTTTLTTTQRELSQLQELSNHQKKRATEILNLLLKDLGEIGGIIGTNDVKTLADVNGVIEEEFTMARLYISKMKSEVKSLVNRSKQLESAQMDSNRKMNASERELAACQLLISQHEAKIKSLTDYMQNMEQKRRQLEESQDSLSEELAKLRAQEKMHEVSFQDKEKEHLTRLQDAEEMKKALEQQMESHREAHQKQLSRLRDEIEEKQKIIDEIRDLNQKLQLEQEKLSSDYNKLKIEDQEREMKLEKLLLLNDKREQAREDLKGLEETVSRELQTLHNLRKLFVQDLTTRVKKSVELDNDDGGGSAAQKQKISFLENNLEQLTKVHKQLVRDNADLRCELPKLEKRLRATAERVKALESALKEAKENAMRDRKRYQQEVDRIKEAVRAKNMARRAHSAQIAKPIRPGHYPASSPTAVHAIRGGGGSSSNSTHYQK

[2] = target: T2, full-length human KIF5A-mScarlet-StrepII (human, UniProt Q12840 1-1032)
T2 construct: kinesin heavy chain KIF5A, human, cDNA BC146670, full length; 2x Prescission protease sites lie between KIF5A and mScarlet; also called KIF5A dimer; KHC; source: Sf9 (baculovirus), purified (Streptactin XT, SEC); also co-expressed with KLC1 and co-purified; not shown: mScarlet, C-terminal, kept
T2 sequence (looked up): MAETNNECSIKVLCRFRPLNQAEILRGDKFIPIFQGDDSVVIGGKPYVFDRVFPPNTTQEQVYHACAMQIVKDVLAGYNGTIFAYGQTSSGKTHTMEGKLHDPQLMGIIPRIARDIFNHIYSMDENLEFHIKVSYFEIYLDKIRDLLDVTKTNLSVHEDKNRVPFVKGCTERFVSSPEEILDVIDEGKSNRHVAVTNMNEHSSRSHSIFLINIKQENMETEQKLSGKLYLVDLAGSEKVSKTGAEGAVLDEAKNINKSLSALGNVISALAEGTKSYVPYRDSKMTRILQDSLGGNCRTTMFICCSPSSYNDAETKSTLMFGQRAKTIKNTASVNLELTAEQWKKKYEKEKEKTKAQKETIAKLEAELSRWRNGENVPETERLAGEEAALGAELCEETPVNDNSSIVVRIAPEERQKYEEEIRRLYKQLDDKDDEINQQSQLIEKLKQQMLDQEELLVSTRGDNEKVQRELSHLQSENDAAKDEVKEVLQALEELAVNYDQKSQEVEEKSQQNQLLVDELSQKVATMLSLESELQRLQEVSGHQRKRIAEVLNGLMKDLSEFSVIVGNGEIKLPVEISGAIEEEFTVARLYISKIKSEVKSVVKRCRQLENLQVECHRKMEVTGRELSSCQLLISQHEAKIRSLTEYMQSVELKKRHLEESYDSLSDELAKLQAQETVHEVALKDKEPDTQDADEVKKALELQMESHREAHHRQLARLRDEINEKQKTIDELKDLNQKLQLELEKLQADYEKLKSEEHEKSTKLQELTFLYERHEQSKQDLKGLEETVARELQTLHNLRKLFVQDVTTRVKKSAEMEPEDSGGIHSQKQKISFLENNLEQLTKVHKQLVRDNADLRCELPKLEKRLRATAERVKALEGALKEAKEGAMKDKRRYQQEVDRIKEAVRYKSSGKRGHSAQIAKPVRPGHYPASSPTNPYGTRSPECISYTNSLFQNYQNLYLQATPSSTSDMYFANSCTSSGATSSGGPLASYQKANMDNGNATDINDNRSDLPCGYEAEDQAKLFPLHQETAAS

[3] = target: T3, full-length human KIF5B-mScarlet-StrepII (human, UniProt P33176 1-963)
T3 construct: kinesin heavy chain KIF5B, human, cDNA BC126281, full length (aa 1-963); 2x Prescission protease sites lie between KIF5B and mScarlet; also called KIF5B-WT; wild-type KIF5B; source: Sf9 (baculovirus), purified (Streptactin XT, SEC); also co-expressed with KLC1 and co-purified; not shown: mScarlet, C-terminal, kept
T3 sequence (looked up): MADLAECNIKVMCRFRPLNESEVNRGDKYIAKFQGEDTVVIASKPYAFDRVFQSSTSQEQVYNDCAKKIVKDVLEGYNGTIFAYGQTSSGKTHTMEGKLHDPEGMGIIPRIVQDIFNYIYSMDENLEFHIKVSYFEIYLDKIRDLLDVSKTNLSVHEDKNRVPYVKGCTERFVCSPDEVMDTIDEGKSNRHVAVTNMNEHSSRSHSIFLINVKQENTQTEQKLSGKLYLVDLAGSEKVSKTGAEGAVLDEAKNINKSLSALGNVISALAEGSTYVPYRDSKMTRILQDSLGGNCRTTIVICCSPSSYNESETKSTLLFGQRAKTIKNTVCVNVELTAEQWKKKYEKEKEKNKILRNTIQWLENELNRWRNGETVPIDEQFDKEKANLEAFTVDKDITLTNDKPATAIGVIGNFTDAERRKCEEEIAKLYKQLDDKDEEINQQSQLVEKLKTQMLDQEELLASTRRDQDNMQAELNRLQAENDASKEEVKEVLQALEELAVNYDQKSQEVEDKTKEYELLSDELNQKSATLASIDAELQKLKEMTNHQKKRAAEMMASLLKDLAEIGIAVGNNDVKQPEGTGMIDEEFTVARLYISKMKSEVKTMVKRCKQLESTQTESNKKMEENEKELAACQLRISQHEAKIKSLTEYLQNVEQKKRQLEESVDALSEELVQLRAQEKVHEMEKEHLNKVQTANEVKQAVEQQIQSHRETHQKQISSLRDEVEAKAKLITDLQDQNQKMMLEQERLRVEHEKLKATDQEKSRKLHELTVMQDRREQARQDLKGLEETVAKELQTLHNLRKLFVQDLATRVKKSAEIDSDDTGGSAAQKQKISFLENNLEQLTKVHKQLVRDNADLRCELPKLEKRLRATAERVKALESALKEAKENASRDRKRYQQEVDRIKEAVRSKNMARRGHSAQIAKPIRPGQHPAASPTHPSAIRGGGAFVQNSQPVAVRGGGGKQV

Measured: stoichiometry N

B1: 6xHis-FLAG-human KLC1 (co-expressed with KIF5) (natural protein, UniProt Q07866 1-573, looked up)
chain: MYDNMSTMVYIKEDKLEKLTQDEIISKTKQVIQGLEALKNEHNSILQSLLETLKCLKKDDESNLVEEKSNMIRKSLEMLELGLSEAQVMMALSNHLNAVESEKQKLRAQVRRLCQENQWLRDELANTQQKLQKSEQSVAQLEEEKKHLEFMNQLKKYDDDISPSEDKDTDSTKEPLDDLFPNDEDDPGQGIQQQHSSAAAAAQQGGYEIPARLRTLHNLVIQYASQGRYEVAVPLCKQALEDLEKTSGHDHPDVATMLNILALVYRDQNKYKDAANLLNDALAIREKTLGKDHPAVAATLNNLAVLYGKRGKYKEAEPLCKRALEIREKVLGKDHPDVAKQLNNLALLCQNQGKYEEVEYYYQRALEIYQTKLGPDDPNVAKTKNNLASCYLKQGKFKQAETLYKEILTRAHEREFGSVDDENKPIWMHAEEREECKGKQKDGTSFGEYGGWYKACKVDSPTVTTTLKNLGALYRRQGKFEAAETLEEAAMRSRKQGLDNVHKQRVAEVLNDPENMEKRRSRESLNVDVVKYESGPDGGEEVSMSVEWNGGVSGRASFCGKRQQQQWPGRRHR
notes: kinesin light chain 1, human, cDNA BC008881; also called kinesin light chain; source: Sf9, co-expressed with KIF5 from a multi-gene baculovirus, co-purified (Streptactin XT, SEC)
~0.8 KLC1 per KHC: [1] | [2] | [3]
